From article PMC2715226

Assays:
Ets-1 p42 [1] = molecular target: T1, Ets-1 p42 (human, UniProt P14921-2 1-354); experiment: not stated
T1 sequence: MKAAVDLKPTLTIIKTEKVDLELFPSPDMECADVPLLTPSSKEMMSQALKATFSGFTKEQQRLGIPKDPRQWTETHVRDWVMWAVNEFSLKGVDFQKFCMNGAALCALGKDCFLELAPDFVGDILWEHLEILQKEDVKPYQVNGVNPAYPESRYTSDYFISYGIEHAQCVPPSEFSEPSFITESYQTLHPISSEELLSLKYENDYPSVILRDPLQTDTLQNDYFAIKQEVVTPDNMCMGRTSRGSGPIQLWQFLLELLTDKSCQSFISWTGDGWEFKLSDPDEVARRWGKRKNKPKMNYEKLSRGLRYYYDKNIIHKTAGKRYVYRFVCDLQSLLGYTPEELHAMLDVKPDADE

Ets-1 p42 [2] = molecular target: T1, Ets-1 p42; experiment: EMSA
p42ΔC328 = molecular target: T2, p42ΔC328 (human, UniProt P14921-2 1-328); experiment: EMSA
T2 sequence: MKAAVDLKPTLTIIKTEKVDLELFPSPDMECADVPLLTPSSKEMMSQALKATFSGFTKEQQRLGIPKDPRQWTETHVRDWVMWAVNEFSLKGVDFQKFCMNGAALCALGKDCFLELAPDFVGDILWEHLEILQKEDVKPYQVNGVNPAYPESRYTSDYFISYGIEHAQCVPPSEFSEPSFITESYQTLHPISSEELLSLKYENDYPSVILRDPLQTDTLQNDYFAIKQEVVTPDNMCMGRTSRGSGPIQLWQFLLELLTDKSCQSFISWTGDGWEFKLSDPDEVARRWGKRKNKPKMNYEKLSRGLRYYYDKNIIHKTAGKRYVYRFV

Ets-1 DBD = molecular target: T3, Ets-1 DBD (human, UniProt P14921 331-415); experiment: EMSA
T3 sequence: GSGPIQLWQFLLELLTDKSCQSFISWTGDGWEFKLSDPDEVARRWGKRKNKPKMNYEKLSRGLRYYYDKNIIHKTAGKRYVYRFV

p51(301-415) = molecular target: T4, p51(301-415) (human, UniProt P14921 301-415); experiment: EMSA
T4 sequence: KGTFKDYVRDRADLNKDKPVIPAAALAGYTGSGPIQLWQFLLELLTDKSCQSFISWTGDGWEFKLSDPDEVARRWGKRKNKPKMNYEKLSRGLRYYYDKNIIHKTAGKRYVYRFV

p51ΔC415 = molecular target: T5, p51ΔC415 (human, UniProt P14921 1-415); experiment: EMSA
T5 sequence: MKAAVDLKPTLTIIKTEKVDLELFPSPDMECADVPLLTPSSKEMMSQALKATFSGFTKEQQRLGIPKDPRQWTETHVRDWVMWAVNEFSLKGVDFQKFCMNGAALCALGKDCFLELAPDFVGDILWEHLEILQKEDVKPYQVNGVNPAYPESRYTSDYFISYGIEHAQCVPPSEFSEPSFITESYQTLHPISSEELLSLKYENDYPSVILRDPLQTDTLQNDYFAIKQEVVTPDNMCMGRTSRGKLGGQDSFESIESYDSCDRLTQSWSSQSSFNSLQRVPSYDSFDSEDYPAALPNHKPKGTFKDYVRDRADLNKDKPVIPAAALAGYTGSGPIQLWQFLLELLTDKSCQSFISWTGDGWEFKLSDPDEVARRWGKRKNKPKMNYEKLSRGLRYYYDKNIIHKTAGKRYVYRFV

p51ΔN331 = molecular target: T6, p51ΔN331 (human, UniProt P14921 331-441); experiment: EMSA
T6 sequence: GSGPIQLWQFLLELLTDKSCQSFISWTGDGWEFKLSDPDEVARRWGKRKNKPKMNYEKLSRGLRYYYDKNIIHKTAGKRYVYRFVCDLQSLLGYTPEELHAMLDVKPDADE

B1: WT (dsDNA)
DNA 1: ACCAAGACAGGAAGCACTTCCTGGAGATTA
DNA 2: TAATCTCCAGGAAGTGCTTCCTGTCTTGGT
Kd (Ets-1 p42 [1]): ~20 nM

B2: M1 (dsDNA)
DNA 1: ACCAAGACAAAAAGCACTTCCTGGAGATTA
DNA 2: TAATCTCCAGGAAGTGCTTTTTGTCTTGGT
Kd (Ets-1 p42 [1]): ~20 nM

B3: IP (dsDNA)
DNA 1: ACCAAGAGCTTCCTGCAGGAAGTGAGATTA
DNA 2: TAATCTCACTTCCTGCAGGAAGCTCTTGGT
binding result (Ets-1 p42 [2]): binds

B4: WT+4 (dsDNA)
DNA 1: ACCAAGACAGGAAGCACGCACTTCCTGGAGATTA
DNA 2: TAATCTCCAGGAAGTGCGTGCTTCCTGTCTTGGT
binding result (Ets-1 p42 [2]): binds
binding result (p42ΔC328): binds
binding result (Ets-1 DBD): binds
binding result (p51(301-415)): binds
binding result (p51ΔC415): binds
binding result (p51ΔN331): binds

B5: M2 (dsDNA)
DNA 1: ACCAAGACAGGAAGCACTTTTTGGAGATTA
DNA 2: TAATCTCCAAAAAGTGCTTCCTGTCTTGGT
Kd (Ets-1 p42 [1]): ~20 nM
